Laboratory results published in US7375083B2, “Pharmaceutical compositions for prevention of overdose or abuse” (Shire LLC, priority 2003, dated 2008).
Where a SMILES comes first, the peptide text is derived from it. The star is where a group is joined. X1 = COc1ccc2c3c1O[C@H]1C(O*)=CC[C@H]4[C@@H](C2)N(C)CC[C@]314

Columns and labels:
[1] = Intravenous bioavailability of hydrocodone conjugates in rats, LC/MS/MS; details: intravenous
[2] = Intranasal bioavailability of hydrocodone conjugates in rats, LC/MS/MS; details: intranasal, 1 mg/kg
[3] = 1 mg/kg dose, hydrocodone plus hydromorphone
[4] = 1 mg/kg dose, relative to hydrocodone bitartrate
[5] = 1 mg/kg hydrocodone base content
[6] = 1 mg/kg hydrocodone base content, 0 h
[7] = 1 mg/kg hydrocodone base content, 0.1 h
[8] = 1 mg/kg hydrocodone base content, 0.5 h
[9] = 1 mg/kg hydrocodone base content, 1.0 h
[10] = 1 mg/kg hydrocodone base content, 2.0 h
[11] = 1 mg/kg hydrocodone base content, 4.0 h

In the case of `CC[C@H](C)[C@H](NC(=O)[C@H](Cc1ccccc1)NC(=O)[C@H](Cc1ccccc1)NC(=O)[C@H](Cc1ccc(O)cc1)NC(=O)[C@@H](N)Cc1ccc(O)cc1)C(=O)OC1=CC[C@H]2[C@H]3Cc4ccc(OC)c5c4[C@@]2(CCN3C)[C@H]1O5` [YYFFI[SEQ ID NO: 8]-HC, Tyr-Tyr-Phe-Phe-Ile[SEQ ID NO: 8]-(6-O)-Hydrocodone] (H-YYFFI-X1), the “hydrocodone plus hydromorphone concentration” value ([1]; 1 mg/kg dose, 5 Minutes) was 171 ng/mL, the “hydrocodone plus hydromorphone concentration” value ([1]; 1 mg/kg dose, 15 Minutes) was 28 ng/mL and the “hydrocodone plus hydromorphone concentration” value ([1]; 1 mg/kg dose, 30 Minutes) was 22 ng/mL. For the same molecule, the “hydrocodone plus hydromorphone concentration” value ([1]; 1 mg/kg dose, 60 Minutes) was 18 ng/mL, the “AUC (ng/ml h) 0-1 h” value [1, 3] was 40 ng·h/mL and the Cmax [1, 3] was 171 ng/mL. For the same molecule, the “Percent HC (AUC)” value [1, 4] was 29%, the “Percent HC (Cmax)” value [1, 4] was 72% and the “HC (hydrocodone) AUC, Percent relative to hydrocodone bitartrate” value [1, 5] was 19%. For the same molecule, the “HC (hydrocodone) Cmax” value [1, 5] was 8.7 ng/mL, the “HC (hydrocodone) Cmax, Percent relative to hydrocodone bitartrate” value [1, 5] was 20.2% and the “HC + HM AUC, Percent relative to hydrocodone bitartrate” value [1, 5] was 36%. The “HC + HM Cmax” value [1, 5] was 22.6 ng/mL, the “HC + HM Cmax, Percent relative to hydrocodone bitartrate” value [1, 5] was 10.8% and the “HM (hydromorphone) AUC, Percent relative to hydrocodone bitartrate” value [1, 5] was 33%. The “HM (hydromorphone) Cmax” value [1, 5] was 31.3 ng/mL, the “HM (hydromorphone) Cmax, Percent relative to hydrocodone bitartrate” value [1, 5] was 12.4% and the “Mean HC (hydrocodone) concentration” value [1, 6] was 0 ng/mL. The “Mean HC + HM concentration” value [1, 6] was 0 ng/mL, the “Mean HM (hydromorphone) concentration” value [1, 6] was 0 ng/mL and the “Mean HC (hydrocodone) concentration” value [1, 7] was 8.75 ng/mL. The “Mean HC + HM concentration” value [1, 7] was 22.6 ng/mL, the “Mean HM (hydromorphone) concentration” value [1, 7] was 31.3 ng/mL and the “Mean HC (hydrocodone) concentration” value [1, 8] was 1.44 ng/mL. For the same molecule, the “Mean HC + HM concentration” value [1, 8] was 13.5 ng/mL, the “Mean HM (hydromorphone) concentration” value [1, 8] was 14.9 ng/mL and the “Mean HC (hydrocodone) concentration” value [1, 9] was 0.92 ng/mL. For the same molecule, the “Mean HC + HM concentration” value [1, 9] was 13.0 ng/mL, the “Mean HM (hydromorphone) concentration” value [1, 9] was 13.9 ng/mL and the “Mean HC (hydrocodone) concentration” value [1, 10] was 0.41 ng/mL. The “Mean HC + HM concentration” value [1, 10] was 13.1 ng/mL, the “Mean HM (hydromorphone) concentration” value [1, 10] was 13.5 ng/mL and the “Mean HC (hydrocodone) concentration” value [1, 11] was 0.33 ng/mL. The “Mean HC + HM concentration” value [1, 11] was 8.5 ng/mL, the “Mean HM (hydromorphone) concentration” value [1, 11] was 8.8 ng/mL and the “Mean HC (hydrocodone) concentration” value ([2]; 0 min) was 0 ng/mL. For the same molecule, the “Mean HC + HM concentration” value ([2]; 0 min) was 0 ng/mL, the “Mean HM (hydromorphone) concentration” value ([2]; 0 min) was 0 ng/mL and the “Mean HC (hydrocodone) concentration” value ([2]; 5 min) was 28 ng/mL. For the same molecule, the “Mean HC + HM concentration” value ([2]; 5 min) was 28 ng/mL, the “Mean HM (hydromorphone) concentration” value ([2]; 5 min) was “bql^3” and the “Mean HC (hydrocodone) concentration” value ([2]; 15 min) was 27 ng/mL. For the same molecule, the “Mean HC + HM concentration” value ([2]; 15 min) was 27 ng/mL, the “Mean HM (hydromorphone) concentration” value ([2]; 15 min) was “bql^4” and the “Mean HC (hydrocodone) concentration” value ([2]; 30 min) was 16 ng/mL. For the same molecule, the “Mean HC + HM concentration” value ([2]; 30 min) was 16 ng/mL, the “Mean HM (hydromorphone) concentration” value ([2]; 30 min) was “bql^5” and the “Mean HC (hydrocodone) concentration” value ([2]; 60 min) was 21 ng/mL. For the same molecule, the “Mean HC + HM concentration” value ([2]; 60 min) was 21 ng/mL and the “Mean HM (hydromorphone) concentration” value ([2]; 60 min) was “bql^6”.
